# Test results as given in US20240043489A1, “Cytokine Prodrugs Comprising a Cleavable Linker” (Trutino Biosciences Inc., priority 2020, published 2024).
# “Also recorded” adds a separate entry of the source. Where no end group is shown, it is not given here. The star is where a group is joined. EDANS = O=S(=O)(O)c1cccc2c(NCCN*)cccc12
# Columns and labels:
# fibronectin = assay: Retention linker peptide binding to fibronectin-coated beads; details: peptides 20 uM
# Method: A series of peptides comprising an MMP cleavable site with or without the addition of a tumor retention sequence were synthesized and conjugated to the fluorophore EDANS (5-((2-Aminoethyl)amino)naphthalene-1-sulfonic acid) (custom synthesis, ThermoFisher). […] These peptides were then tested for their ability to bind ECM proteins such as heparin, fibronectin and collagen which are found in abundance in the tumor stroma.
# For fibronectin and collagen binding assays, streptavidin coupled magnetic beads (Mag Sepharose, Cytiva and Dynabeads, ThermoFisher, respectively) were first incubated with biotin-labelled fibronectin (Cytoskeleton) or biotin-labelled collagen IV (Prospec) for 1 Hr with gentle shaking. Following multiple washes, the ECM-coated beads were then incubated with Edans Peptides (20 uM) for 2 hours at room temperature with shaking in neutral or acidic binding buffer. Beads were then washed and resuspended in 100 uL of binding buffer in a black 96-well plate. Peptide binding was quantified by measuring the fluorescence of samples using excitation/emission spectra of EDANS (Ex 340/Em 490).
# MMP9 = target: T1, MMP9 (Mus musculus, UniProt P41245); assay: Cleavage of fusion protein by MMP9 protease (SDS-PAGE / Western blot); assay type: biochemical
# T1 construct: purchased R&D Systems
# T1 sequence (P41245 108-730): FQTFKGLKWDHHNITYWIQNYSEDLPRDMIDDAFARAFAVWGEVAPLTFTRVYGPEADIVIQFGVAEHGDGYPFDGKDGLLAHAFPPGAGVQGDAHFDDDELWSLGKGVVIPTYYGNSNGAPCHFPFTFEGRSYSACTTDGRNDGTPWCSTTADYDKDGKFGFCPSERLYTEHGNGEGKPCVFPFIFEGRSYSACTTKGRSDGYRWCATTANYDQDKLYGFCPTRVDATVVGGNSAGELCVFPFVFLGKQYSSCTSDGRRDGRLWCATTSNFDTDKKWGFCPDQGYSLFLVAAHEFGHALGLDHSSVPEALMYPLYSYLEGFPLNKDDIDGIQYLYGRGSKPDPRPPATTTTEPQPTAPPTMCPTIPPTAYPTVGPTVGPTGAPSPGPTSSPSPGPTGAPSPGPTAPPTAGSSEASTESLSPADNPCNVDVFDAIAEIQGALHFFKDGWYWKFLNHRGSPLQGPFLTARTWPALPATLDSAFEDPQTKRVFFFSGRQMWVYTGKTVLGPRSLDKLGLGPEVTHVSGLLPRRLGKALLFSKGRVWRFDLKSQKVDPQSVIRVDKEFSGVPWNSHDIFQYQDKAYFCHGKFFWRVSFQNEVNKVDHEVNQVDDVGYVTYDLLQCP
# Method: (§1) Recombinant MMP9 and/or MMP2 (R&D Systems) was first activated with p-aminophenylmercuric acetate and this activated protease or equivalent amount of activating solution without the protease was used to digest or mock digest the fusion protein for 1 hr, 2 hr, 4 hr and overnight (18-22 hr) at 37 C. Cleavage assays are set up in TCNB buffer: 50 mM Tris, 10 mM CaCl2), 150 mM NaCl, 0.05% Brij-35 (w/v), pH 7.5. Digested protein was aliquoted and stored at −80° C. prior to testing. Aliquots of digests were subsequently analyzed by SDS-PAGE followed by Western blotting to evaluate the extent of cleavage. Digests were also assessed in functional assays such as CTLL-2 proliferation and HEK-Blue Interleukin reporter assays. As shown in FIGS. 2A-E, essentially complete cleavage by MMP9 protease of the fusion proteins with functional site is seen after overnight incubation. In contrast, proteins containing a scrambled MMP cleavage site are not cut (FIG. 2E).
# Untreated and digested fusion proteins were evaluated for cleavage products by Western blot. The following monoclonal antibodies were used: rat anti-mouse IL-2 antibody (JES6-1A12; ThermoFisher), goat anti-mouse IL-2 polyclonal antibody (AF-402-NA; R&D systems), mouse anti-6xHis monoclonal antibody (MA1-21315, ThermoFisher), Anti-mIgG Fc HRP conjugated (ThermoFisher cat #A16084), and Anti-human IL2 antibody (Invitrogen, cat #MA5-17097, mouse IgG1). Detection was performed using either a goat anti-rat HRP-conjugated antibody, Donkey Anti-goat HRP-conjugated antibody or Goat Anti-mouse HIRP conjugated (Jackson Immuno Research, West Grove, PA) and developed using the SuperSignal West Femto Maximum sensitivity detection reagent (ThermoFisher) following the manufacturer's recommendations.
# CTLL-2 cells = assay: CTLL-2 proliferation assay (MTT); assay type: cell-based
# Method: as §1
# IL-2 activity was measured using either CTLL-2 cells (ATCC) or the reporter cell line HEK Blue IL2 (Invivogen, San Diego). In brief, for the CTLL-2 assay a titration of untreated and digested samples is added to 40 000 CTLL-2 cells per well in 100 ul medium in a 96-well plate and incubated at 37C in 5% CO2 for 18-22 hr. At the end of this period, 50ug/well Thiazolyl Blue Tetrazolium Bromide (MTT) (Sigma-Aldrich) was added and the plate was incubated for 5 hr at 37C in 5% CO2. Cells were lysed with 100 µl/well 10% SDS (Sigma) acidified with HCl, incubated at 37C for 4 hr, and absorbance was read at 570 nm. Recombinant human or mouse IL-2 (Peprotech and R&D systems respectively) was used as a positive control. FIGS. 3A-B, 3K-L and 3N-P show examples of untreated and digested fusion proteins evaluated in CTLL-2 proliferation assay.
# MC38 tumor = assay: Intra-tumoral injection in syngeneic MC38 colorectal cancer model; assay type: in vivo, mice
# Method: Tumors and body weights were measured twice a week for the duration of the study. Tumor volumes were calculated using the following equation: (longest diameter*shortest diameter^2)/2.
# [1] = target: collagen (agarose cross-linked to collagen, Sigma); assay: pulldown on collagen-agarose beads, anti-mouse IL-2 immunoblot, band quantified with iBright
# [2] = target: collagen (agarose cross-linked to collagen, Sigma); assay: pulldown on collagen-agarose beads, anti-mouse IL-2 immunoblot, bound fraction normalized to Construct B
# [3] = target: collagen cross-linked to agarose (Sigma); assay: pulldown with collagen-agarose beads, anti-mouse IL-2 immunoblot quantified with iBright imaging system
molecule,measurement,setting,value
peptide 13: EDANS-conjugated MMP linker peptide with GPLGVRG site; retention motif target pH dependent fibronectin (GGGWSHWGPLGVRG-{EDANS}; also: EDANS fluorophore conjugated at 3' end),binding to fibronectin at pH6 vs pH 7.5,fibronectin,enhanced binding at pH6
same,binding to fibronectin,fibronectin; 2 hours,able to bind fibronectin
Construct A: SEQ ID NO 100: mIL2-2x(SG4)-MMPcs1-2x(G4S)-IL2Ralpha-6His (protein) APTSSSTSSSTAEAQQQQQQQQQQQQHLEQLLMDLQELLSRMENYRNLKLPRMLTFKFYLPKQATELKDLQCLEDELGPLRHVLDLTQSKSFQLEDAENFISNIRVTVVKLKGSDNTFECQFDDESATVVDFLRRWIAFCQSIISTSPQSGGGGSGGGGGPLGVRGGGGGSGGGGSELCLYDPPEVPNATFKALSYKNGTILNCECKRGFRRLKELVYMRCLGNSWSSNCQCTSNSHDKSRKQVTAQLEHQKEQQTTTDMQKPTQSMHQENLTGHCREPPPWKHEDSKRIYHFVEGQSVHYECIPGYKALQRGPAISICKMKCGKTGWTQPQLTCVDEREHHRFLASEESQGSRNSSPESETSCPITTTDFPQPTETTAMTETFVLTMEYKHHHHHH,time at which cleavage product was detectable,"MMP9; +MMP-9 digestion, Western blot",1 h
same,full-length cytokine prodrug remaining,MMP9; overnight +MMP time point,substantially undetectable
same,greater activity of MMP-9 treated than untreated construct (EC50 comparison),CTLL-2 cells; CTLL-2 proliferation,10 fold
same,"CTLL-2 cell proliferation, MMP-9 treated construct",CTLL-2 cells; cleaved by MMP-9,stimulates CTLL-2 cell proliferation in a dose dependent manner
same,anti-tumor activity,"MC38 tumor; daily intra-tumoral injection, 10 injections, Construct A 70ug/day, r hIL2 5 ug/day",substantially inhibited tumor growth; also recorded: complete elimination of tumor
same,tumor establishment after re-challenge with MC38 cells,"MC38 tumor; re-inoculated on Day 40, a month after re-challenge",Tumor growth was rejected; also recorded: no tumor mass was established
Construct B (Fc fusion) APTSSSTSSSTAEAQQQQQQQQQQQQHLEQLLMDLQELLSRMENYRNLKLPRMLTFKFYLPKQATELKDLQCLEDELGPLRHVLDLTQSKSFQLEDAENFISNIRVTVVKLKGSDNTFECQFDDESATVVDFLRRWIAFCQSIISTSPQSGGGGSGGGGGPLGVRGGGGGSGGGGSELCLYDPPEVPNATFKALSYKNGTILNCECKRGFRRLKELVYMRCLGNSWSSNCQCTSNSHDKSRKQVTAQLEHQKEQQTTTDMQKPTQSMHQENLTGHCREPPPWKHEDSKRIYHFVEGQSVHYECIPGYKALQRGPAISICKMKCGKTGWTQPQLTCVDEREHHRFLASEESQGSRNSSPESETSCPITTTDFPQPTETTAMTETFVLTMEYKGCKPCICTVPEVSSVFIFPPKPKDVLTITLTPKVTCVVVDISKDDPEVQFSWFVDDVEVHTAQTQPREEQFNSTFRSVSELPIMHQDWLNGKEFKCRVNSAAFPAPIEKTISKTKGRPKAPQVYTIPPPKEQMAKDKVSLTCMITDFFPEDITVEWQWNGQPAENYKNTQPIMDTDGSYFVYSKLNVQKSNWEAGNTFTCSVLHEGLHNHHTEKSLSHSPGK,Bound,[1],2310
same,Bound (% input),[1],0.3%
same,Normalized (fold (relative to Construct B)),[2],1
Construct II (Fc fusion) APTSSSTSSSTAEAQQQQQQQQQQQQHLEQLLMDLQELLSRMENYRNLKLPRMLTFKFYLPKQATELKDLQCLEDELGPLRHVLDLTQSKSFQLEDAENFISNIRVTVVKLKGSDNTFECQFDDESATVVDFLRRWIAFCQSIISTSPQSLHERHLNNNGPLGVRGGGGGSGGGGSELCLYDPPEVPNATFKALSYKNGTILNCECKRGFRRLKELVYMRCLGNSWSSNCQCTSNSHDKSRKQVTAQLEHQKEQQTTTDMQKPTQSMHQENLTGHCREPPPWKHEDSKRIYHFVEGQSVHYECIPGYKALQRGPAISICKMKCGKTGWTQPQLTCVDEREHHRFLASEESQGSRNSSPESETSCPITTTDFPQPTETTAMTETFVLTMEYKGCKPCICTVPEVSSVFIFPPKPKDVLTITLTPKVTCVVVDISKDDPEVQFSWFVDDVEVHTAQTQPREEQFNSTFRSVSELPIMHQDWLNGKEFKCRVNSAAFPAPIEKTISKTKGRPKAPQVYTIPPPKEQMAKDKVSLTCMITDFFPEDITVEWQWNGQPAENYKNTQPIMDTDGSYFVYSKLNVQKSNWEAGNTFTCSVLHEGLHNHHTEKSLSHSPGK,Bound,[1],2280
same,Bound (% input),[1],0.4%
same,Normalized (fold (relative to Construct B)),[2],1.4
Construct GG (Fc fusion) APTSSSTSSSTAEAQQQQQQQQQQQQHLEQLLMDLQELLSRMENYRNLKLPRMLTFKFYLPKQATELKDLQCLEDELGPLRHVLDLTQSKSFQLEDAENFISNIRVTVVKLKGSDNTFECQFDDESATVVDFLRRWIAFCQSIISTSPQSGGKLWVLPKGPLGVRGGGGGSGGGGSELCLYDPPEVPNATFKALSYKNGTILNCECKRGFRRLKELVYMRCLGNSWSSNCQCTSNSHDKSRKQVTAQLEHQKEQQTTTDMQKPTQSMHQENLTGHCREPPPWKHEDSKRIYHFVEGQSVHYECIPGYKALQRGPAISICKMKCGKTGWTQPQLTCVDEREHHRFLASEESQGSRNSSPESETSCPITTTDFPQPTETTAMTETFVLTMEYKGCKPCICTVPEVSSVFIFPPKPKDVLTITLTPKVTCVVVDISKDDPEVQFSWFVDDVEVHTAQTQPREEQFNSTFRSVSELPIMHQDWLNGKEFKCRVNSAAFPAPIEKTISKTKGRPKAPQVYTIPPPKEQMAKDKVSLTCMITDFFPEDITVEWQWNGQPAENYKNTQPIMDTDGSYFVYSKLNVQKSNWEAGNTFTCSVLHEGLHNHHTEKSLSHSPGK,Bound,[1],5190
same,Bound (% input),[1],0.7%
same,Normalized (fold (relative to Construct B)),[2],2.5
Construct GG: m IL2-SGG-KLWVLPK-MMPcs1-2x(G4S)-mIL2Ra(1-215)-mu IgG1 Fc (Fc fusion) APTSSSTSSSTAEAQQQQQQQQQQQQHLEQLLMDLQELLSRMENYRNLKLPRMLTFKFYLPKQATELKDLQCLEDELGPLRHVLDLTQSKSFQLEDAENFISNIRVTVVKLKGSDNTFECQFDDESATVVDFLRRWIAFCQSIISTSPQSGGKLWVLPKGPLGVRGGGGGSGGGGSELCLYDPPEVPNATFKALSYKNGTILNCECKRGFRRLKELVYMRCLGNSWSSNCQCTSNSHDKSRKQVTAQLEHQKEQQTTTDMQKPTQSMHQENLTGHCREPPPWKHEDSKRIYHFVEGQSVHYECIPGYKALQRGPAISICKMKCGKTGWTQPQLTCVDEREHHRFLASEESQGSRNSSPESETSCPITTTDFPQPTETTAMTETFVLTMEYKGCKPCICTVPEVSSVFIFPPKPKDVLTITLTPKVTCVVVDISKDDPEVQFSWFVDDVEVHTAQTQPREEQFNSTFRSVSELPIMHQDWLNGKEFKCRVNSAAFPAPIEKTISKTKGRPKAPQVYTIPPPKEQMAKDKVSLTCMITDFFPEDITVEWQWNGQPAENYKNTQPIMDTDGSYFVYSKLNVQKSNWEAGNTFTCSVLHEGLHNHHTEKSLSHSPGK,fraction bound (% of input),[3],< 1 % of input
Construct II: m IL2-…-MMPcs1-2x(G4S)-mIL2Ra(1-215)-mu IgG1 Fc (Fc fusion) APTSSSTSSSTAEAQQQQQQQQQQQQHLEQLLMDLQELLSRMENYRNLKLPRMLTFKFYLPKQATELKDLQCLEDELGPLRHVLDLTQSKSFQLEDAENFISNIRVTVVKLKGSDNTFECQFDDESATVVDFLRRWIAFCQSIISTSPQSLHERHLNNNGPLGVRGGGGGSGGGGSELCLYDPPEVPNATFKALSYKNGTILNCECKRGFRRLKELVYMRCLGNSWSSNCQCTSNSHDKSRKQVTAQLEHQKEQQTTTDMQKPTQSMHQENLTGHCREPPPWKHEDSKRIYHFVEGQSVHYECIPGYKALQRGPAISICKMKCGKTGWTQPQLTCVDEREHHRFLASEESQGSRNSSPESETSCPITTTDFPQPTETTAMTETFVLTMEYKGCKPCICTVPEVSSVFIFPPKPKDVLTITLTPKVTCVVVDISKDDPEVQFSWFVDDVEVHTAQTQPREEQFNSTFRSVSELPIMHQDWLNGKEFKCRVNSAAFPAPIEKTISKTKGRPKAPQVYTIPPPKEQMAKDKVSLTCMITDFFPEDITVEWQWNGQPAENYKNTQPIMDTDGSYFVYSKLNVQKSNWEAGNTFTCSVLHEGLHNHHTEKSLSHSPGK,fraction bound (% of input),[3],< 1 % of input
